Experimental findings from patent US20140287471A1, “VARIANT CBH I POLYPEPTIDES WITH REDUCED PRODUCT INHIBITION” (BP CORPORATION NORTN AMERICA INC., priority 2011, published 2014) are described below.

A short description of assay [1]: 4-MUL assay, specific activity (Example 2). The assay is classed as biochemical. The settings on record: primary screening; 10 μL enzyme; n=1. How it is done:
(§1) CBH I activity on was measured using the 4-MUL assay using gluconolactone to inhibit any BG activity. The fluorogenic 4-MUL substrate (SIGMA) was prepared at 100 mM concentration in DMSO. Assays were run in black 96-well-flat-bottomed plates (Costar) and 4-MU fluorescence was read on a BioTek H4 plate reader (ex/em 365/450 nm). Assay plates were filled with buffer (final concentrations of 100 mM MES, pH 6, 25 mM gluconolactone, with or without cellobiose; cellobiose concentrations are listed with appropriate data sets), to which enzyme mixture was added (10-30 μl, 5 μg/mL final) and then assays were initiated by addition of 4-MUL (0.5 mM final concentration in 100 μl total volume). Enzyme mixtures were either CBH I variants from harvested supernatants or standards. Standards included: a negative control, consisting of harvested supernatant from the CBH I knock-out strain; a positive control, consisting of wild-type CBH I from harvested supernatants; and, a commercial CBH I standard (E-CBHI from Megazymes). Activity standards were run by serial dilution of commercial CBH I from 40 to 0.02 μg/mL and 4-MU (SIGMA, prepared at 20 mM in DMSO) (in dilution increments of 2-fold; all dilutions were made using harvested supernatant from the knock-out control). Kinetic rates were monitored over the first 15 mins following 4-MUL addition; initial rates were calculated based on data in the linear range. After 1 hr, a final endpoint read was taken, both before and after reaction quenching (100 μL of 200 mM Sodium Carbonate, pH 10.0). Activity was calculated for kinetic and endpoint reads; background resulting from the CBH I knock-out supernatant remained negligible. 4MU standard curves and HPLC quantification values were used to calculate specific activity.
The specific activity (SA) of the variant library was evaluated in a secondary 4-MUL assay. […] On average, a mutation at position 268 increases the specific activity by 2.5 fold over that of wild type. A mutation at 268 in combination with 411 is around 1.5-1.6 fold higher than wild-type, on average.

Assay [2] in a line: 4-MUL cellobiose tolerance/inhibition assay, dose-response IC50 (Example 2). The assay is classed as biochemical. How it is done: as §1
Tolerance/inhibition values represent activity ratios and/or percent activity remaining/percent activity decreased in the presence versus the absence of cellobiose. Tolerant variants show less inhibition in the presence of cellobiose as compared to wild type, where an activity ratio of 1 (with vs. without a given concentration of cellobiose) is equivalent to 0% inhibition by cellobiose, or 100% tolerance. The effect of cellobiose on CBH I variant performance was monitored by dose-response in the 4MUL assay. Dose-response curves were generated by assaying variant activity in the presence of 6-8 different cellobiose concentrations ranging up to 100 mM cellobiose. CBH I samples were diluted to 5 μg/mL final concentration or were used directly in the case of protein quantification levels below 5 μg/mL. Half maximal inhibitory concentration (IC50) values were determined by plotting 4MUL activity versus cellobiose concentration and fitting with a four parameter dose-response fitting algorithm, with zero activity (or 100% inhibition) constrained to background activity (as established by CBH I knockout values) and with automatic outlier elimination (on GraphPad Prism 5).
Harvested supernatants from active variant isolates were evaluated for cellobiose tolerance at 1 mM cellobiose in the 4-MUL activity assay. Table 8 lists the tolerance of variants at 1 mM. […] Additional cellobiose concentrations at 0.25, 5, 10, 50, and 100 mM were tested leading to full dose-response curves for which half maximal inhibitory concentration (IC50) values were generated (Table 8). The IC50 values support that the variant library has decreased product inhibition, or increased tolerance to cellobiose, when compared to the wild-type enzyme (WT IC50=0.03 mM; see first entry, Table 8).
In one example, the cellobiose tolerance of the library was explored in more detail by generating dose-response curves and determining half maximal inhibitory concentration (IC50) values, the point at which the enzyme is 50% inhibited.

Setting [3] is: Secondary screening, 30 μl harvested supernatant (CBH I levels lower than 5 μg/mL), cellobiose range 0.00085-100 mM, read-out: IC50.
Where [4] appears, read: Secondary screening, CBH I levels normalized to 5 μg/mL, cellobiose range 0.00085-100 mM, read-out: IC50.

Read-outs that look alike come from different tables or passages of the source.

B1: 268_+411A Gln (protein, UniProt P62694 18-513, looked up, variant R268Q R411A)
Exoglucanase 1: QSACTLQSETHPPLTWQKCSSGGTCTQQTGSVVIDANWRWTHATNSSTNCYDGNTWSSTLCPDNETCAKNCCLDGAAYASTYGVTTSGNSLSIGFVTQSAQKNVGARLYLMASDTTYQEFTLLGNEFSFDVDVSQLPCGLNGALYFVSMDADGGVSKYPTNTAGAKYGTGYCDSQCPRDLKFINGQANVEGWEPSSNNANTGIGGHGSCCSEMDIWEANSISEALTPHPCTTVGQEICEGDGCGGTYSDNQYGGTCDPDGCDWNPYRLGNTSFYGPGSSFTLDTTKKLTVVTQFETSGAINRYYVQNGVTFQQPNAELGSYSGNELNDDYCTAEEAEFGGSSFSDKGGLTQFKKATSGGMVLVMSLWDDYYANMLWLDSTYPTNETSSTPGAVAGSCSTSSGVPAQVESQSPNAKVTFSNIKFGPIGSTGNPSGGNPPGGNRGTTTTRRPATTTGSSPGPTQSHYGQCGGIGYSGPTVCASGTTCQVLNPYYSQCL
In the case of B1, in assay [1], the “SA (μmol 4 MU/min/mg) (MUL Data)” value is listed as −0.45 μmol 4 MU/min/mg.

B2: R411Q (protein, UniProt P62694 18-513, looked up, variant R411Q)
Exoglucanase 1: QSACTLQSETHPPLTWQKCSSGGTCTQQTGSVVIDANWRWTHATNSSTNCYDGNTWSSTLCPDNETCAKNCCLDGAAYASTYGVTTSGNSLSIGFVTQSAQKNVGARLYLMASDTTYQEFTLLGNEFSFDVDVSQLPCGLNGALYFVSMDADGGVSKYPTNTAGAKYGTGYCDSQCPRDLKFINGQANVEGWEPSSNNANTGIGGHGSCCSEMDIWEANSISEALTPHPCTTVGQEICEGDGCGGTYSDNRYGGTCDPDGCDWNPYRLGNTSFYGPGSSFTLDTTKKLTVVTQFETSGAINRYYVQNGVTFQQPNAELGSYSGNELNDDYCTAEEAEFGGSSFSDKGGLTQFKKATSGGMVLVMSLWDDYYANMLWLDSTYPTNETSSTPGAVQGSCSTSSGVPAQVESQSPNAKVTFSNIKFGPIGSTGNPSGGNPPGGNRGTTTTRRPATTTGSSPGPTQSHYGQCGGIGYSGPTVCASGTTCQVLNPYYSQCL
Consider B2, for which the IC50 in assay [2] (setting [3]) is 2510 µM.

B3: R411D (protein, UniProt P62694 18-513, looked up, variant R411D)
Exoglucanase 1: QSACTLQSETHPPLTWQKCSSGGTCTQQTGSVVIDANWRWTHATNSSTNCYDGNTWSSTLCPDNETCAKNCCLDGAAYASTYGVTTSGNSLSIGFVTQSAQKNVGARLYLMASDTTYQEFTLLGNEFSFDVDVSQLPCGLNGALYFVSMDADGGVSKYPTNTAGAKYGTGYCDSQCPRDLKFINGQANVEGWEPSSNNANTGIGGHGSCCSEMDIWEANSISEALTPHPCTTVGQEICEGDGCGGTYSDNRYGGTCDPDGCDWNPYRLGNTSFYGPGSSFTLDTTKKLTVVTQFETSGAINRYYVQNGVTFQQPNAELGSYSGNELNDDYCTAEEAEFGGSSFSDKGGLTQFKKATSGGMVLVMSLWDDYYANMLWLDSTYPTNETSSTPGAVDGSCSTSSGVPAQVESQSPNAKVTFSNIKFGPIGSTGNPSGGNPPGGNRGTTTTRRPATTTGSSPGPTQSHYGQCGGIGYSGPTVCASGTTCQVLNPYYSQCL
In the case of B3, the IC50 was 1640 µM in assay [2] (setting [3]) and 1580 µM in assay [2] (setting [4]).

B4: R268F (protein, UniProt P62694 18-513, looked up, variant R268F)
Exoglucanase 1: QSACTLQSETHPPLTWQKCSSGGTCTQQTGSVVIDANWRWTHATNSSTNCYDGNTWSSTLCPDNETCAKNCCLDGAAYASTYGVTTSGNSLSIGFVTQSAQKNVGARLYLMASDTTYQEFTLLGNEFSFDVDVSQLPCGLNGALYFVSMDADGGVSKYPTNTAGAKYGTGYCDSQCPRDLKFINGQANVEGWEPSSNNANTGIGGHGSCCSEMDIWEANSISEALTPHPCTTVGQEICEGDGCGGTYSDNFYGGTCDPDGCDWNPYRLGNTSFYGPGSSFTLDTTKKLTVVTQFETSGAINRYYVQNGVTFQQPNAELGSYSGNELNDDYCTAEEAEFGGSSFSDKGGLTQFKKATSGGMVLVMSLWDDYYANMLWLDSTYPTNETSSTPGAVRGSCSTSSGVPAQVESQSPNAKVTFSNIKFGPIGSTGNPSGGNPPGGNRGTTTTRRPATTTGSSPGPTQSHYGQCGGIGYSGPTVCASGTTCQVLNPYYSQCL
As for B4, the 50% inhibitory concentration (IC50) in assay [2] (setting [3]) worked out at 515 µM.

B5: R411T (protein, UniProt P62694 18-513, looked up, variant R411T)
Exoglucanase 1: QSACTLQSETHPPLTWQKCSSGGTCTQQTGSVVIDANWRWTHATNSSTNCYDGNTWSSTLCPDNETCAKNCCLDGAAYASTYGVTTSGNSLSIGFVTQSAQKNVGARLYLMASDTTYQEFTLLGNEFSFDVDVSQLPCGLNGALYFVSMDADGGVSKYPTNTAGAKYGTGYCDSQCPRDLKFINGQANVEGWEPSSNNANTGIGGHGSCCSEMDIWEANSISEALTPHPCTTVGQEICEGDGCGGTYSDNRYGGTCDPDGCDWNPYRLGNTSFYGPGSSFTLDTTKKLTVVTQFETSGAINRYYVQNGVTFQQPNAELGSYSGNELNDDYCTAEEAEFGGSSFSDKGGLTQFKKATSGGMVLVMSLWDDYYANMLWLDSTYPTNETSSTPGAVTGSCSTSSGVPAQVESQSPNAKVTFSNIKFGPIGSTGNPSGGNPPGGNRGTTTTRRPATTTGSSPGPTQSHYGQCGGIGYSGPTVCASGTTCQVLNPYYSQCL
In the case of B5, the 50% inhibitory concentration (IC50) was 2020 µM in assay [2] (setting [3]) and 2000 µM in assay [2] (setting [4]).

B6: R411P (protein, UniProt P62694 18-513, looked up, variant R411P)
Exoglucanase 1: QSACTLQSETHPPLTWQKCSSGGTCTQQTGSVVIDANWRWTHATNSSTNCYDGNTWSSTLCPDNETCAKNCCLDGAAYASTYGVTTSGNSLSIGFVTQSAQKNVGARLYLMASDTTYQEFTLLGNEFSFDVDVSQLPCGLNGALYFVSMDADGGVSKYPTNTAGAKYGTGYCDSQCPRDLKFINGQANVEGWEPSSNNANTGIGGHGSCCSEMDIWEANSISEALTPHPCTTVGQEICEGDGCGGTYSDNRYGGTCDPDGCDWNPYRLGNTSFYGPGSSFTLDTTKKLTVVTQFETSGAINRYYVQNGVTFQQPNAELGSYSGNELNDDYCTAEEAEFGGSSFSDKGGLTQFKKATSGGMVLVMSLWDDYYANMLWLDSTYPTNETSSTPGAVPGSCSTSSGVPAQVESQSPNAKVTFSNIKFGPIGSTGNPSGGNPPGGNRGTTTTRRPATTTGSSPGPTQSHYGQCGGIGYSGPTVCASGTTCQVLNPYYSQCL
As for B6, the half-inhibitory concentration (IC50) was 1270 µM in assay [2] (setting [4]) and 1050 µM in assay [2] (secondary screening, CBH I levels normalized to 5 μg/mL, cellobiose range 0.0001-100 mM, read-out: Average IC50).

B7: R411L (protein, UniProt P62694 18-513, looked up, variant R411L)
Exoglucanase 1: QSACTLQSETHPPLTWQKCSSGGTCTQQTGSVVIDANWRWTHATNSSTNCYDGNTWSSTLCPDNETCAKNCCLDGAAYASTYGVTTSGNSLSIGFVTQSAQKNVGARLYLMASDTTYQEFTLLGNEFSFDVDVSQLPCGLNGALYFVSMDADGGVSKYPTNTAGAKYGTGYCDSQCPRDLKFINGQANVEGWEPSSNNANTGIGGHGSCCSEMDIWEANSISEALTPHPCTTVGQEICEGDGCGGTYSDNRYGGTCDPDGCDWNPYRLGNTSFYGPGSSFTLDTTKKLTVVTQFETSGAINRYYVQNGVTFQQPNAELGSYSGNELNDDYCTAEEAEFGGSSFSDKGGLTQFKKATSGGMVLVMSLWDDYYANMLWLDSTYPTNETSSTPGAVLGSCSTSSGVPAQVESQSPNAKVTFSNIKFGPIGSTGNPSGGNPPGGNRGTTTTRRPATTTGSSPGPTQSHYGQCGGIGYSGPTVCASGTTCQVLNPYYSQCL
On to B7, for which, in assay [2] (setting [3]), the IC50 was 6390 µM.

B8: R411E (protein, UniProt P62694 18-513, looked up, variant R411E)
Exoglucanase 1: QSACTLQSETHPPLTWQKCSSGGTCTQQTGSVVIDANWRWTHATNSSTNCYDGNTWSSTLCPDNETCAKNCCLDGAAYASTYGVTTSGNSLSIGFVTQSAQKNVGARLYLMASDTTYQEFTLLGNEFSFDVDVSQLPCGLNGALYFVSMDADGGVSKYPTNTAGAKYGTGYCDSQCPRDLKFINGQANVEGWEPSSNNANTGIGGHGSCCSEMDIWEANSISEALTPHPCTTVGQEICEGDGCGGTYSDNRYGGTCDPDGCDWNPYRLGNTSFYGPGSSFTLDTTKKLTVVTQFETSGAINRYYVQNGVTFQQPNAELGSYSGNELNDDYCTAEEAEFGGSSFSDKGGLTQFKKATSGGMVLVMSLWDDYYANMLWLDSTYPTNETSSTPGAVEGSCSTSSGVPAQVESQSPNAKVTFSNIKFGPIGSTGNPSGGNPPGGNRGTTTTRRPATTTGSSPGPTQSHYGQCGGIGYSGPTVCASGTTCQVLNPYYSQCL
Turning to B8, in assay [2] (setting [3]), the IC50 is 3380 µM.

One may read the IC50 as the midpoint of a concentration-inhibition curve.
